Legend:
[1] = in vivo
Protocol: • A. Animal Preparation - LA Vascular Thrombi. Fasting 25-30 kg Yorkshire swine were sedated with intramuscular Telazol (5-10 mg/kg) (commercially available from AVECO Co.) and commercially available Atropine (1 mg, Elkins-Sinn, Inc., Cherry Hill, NJ). Surital (200 mg) (commercially available from Abbott Laboratories) anaesthesia was administered intravenously. The animals were intubated and given inhalation anaesthesia of 1.5-2% halothane (commercially available from Abbott Laboratories) and O2 sufficient to obtain a deep level of anesthesia and physiologic arterial blood gases. Continuous electrocardiographic monitoring was instituted using alligator clip electrodes. A cut down in the neck region was conducted, and an 8 french catheter (USCI Co, Billerica, MA) was placed in the right common carotid artery for blood pressure and arterial blood gas monitoring as well as for blood sampling. The swine were placed in a right lateral decubitus position, and a lateral thoracotomy was performed to expose the heart. The incision was held open by a thoracotomy retractor. The pericardium was opened, and the left atrial appendage was isolated from the left atrium by a vascular cross- clamp. Rubber tipped forceps were used to gently crush the appendage. Five minutes later, ricinoleate (1 mg, ICN Pharmaceuticals, Costa Mesa, CA) and thrombin (50 mg, Johnson and Johnson Co., Arlington, Texas) were injected into the LAA (left atrial appendage) using a 27 Ga needle. The cross-clamp was removed 10 minutes later. One hour after the crush injury, Tc-99m-annexin V, prepared in accordance with Example I above, was administered as an intravenous bolus dose in an ear vein. The intravenous line was then flushed with saline. In 7 animals, I-125 labeled ovalbumin was administered as a non-specific control preparable, for example, by the procedure described by Fraker et al., Biochem. Biophys. Res. Commun. 80: 849-57, 1978). Briefly, I-125-radiolabeled ovalbumin was prepared by the Iodogen method, employing 600 µg ovalbumin (Sigma Chemical Co., St. Louis, Missouri) and NaI-125 (2mCi, 0.92 nmol). Image acquisition was performed as described below. At the end of the experimental procedure (generally about 150 minutes), the animals were sacrificed by an intravenous bolus dose of 80 mEq of KCl while the animals were still under general anaesthetic. A final blood sample was taken for well counting. The heart was rapidly excised, washed free of blood and dissected into samples for well counting. Additional samples of carotid artery, lung, liver, spleen, muscle and kidney were obtained in some animals. • B. Controls. Five different types of controls were used: open chest sham; closed chest sham; ovalbumin; indium platelets; and non-specific Tc-99m-labeled antibody. • 1. Open Chest Sham. In three animals, the heart was exposed as above, but the left atrium was not isolated, crushed or injected with ricinoleate/thrombin. Marker images with a cobalt marker were performed as described below, and the Tc-99m-annexin V was injected 30-60 minutes after LAA exposure. Imaging and sample acquisition were identical to that described in A above. • 2. Closed Chest Sham. In seven animals, an ear intravenous line was established. No thoracotomy was performed. Sedation and anesthesia were identical to that described in A above. The Tc-99m-annexin V (+/other control radionuclides, such as I-125 ovalbumin or In-111-platelets) was administered and image acquisition was performed. • 3. Ovalbumin. I-125 ovalbumin was administered in 7 animals as a negative control protein. […] Indium Platelets. In-111 platelet labeling was performed in 7 animals as a positive well counting label. In-111 radiolabeled platelets were prepared in accordance with the procedure described by Stratton et al., Am. J. Cardiol. 47: 874, 1981 and Stratton et al., Circulation 69: 561, 1984. Imaging was not attempted because of the long serum half-life of the In-111-platelets. • 5. Non-specific Tc-Labeled Antibody. […]

[2] = system: atrial thrombi and injured left atrium; design: species or system Yorkshire swine; settings: in vivo
Protocol: • A. Animal Preparation - LA Vascular Thrombi. […] Continuous electrocardiographic monitoring was instituted using alligator clip electrodes. […] The incision was held open by a thoracotomy retractor. […] The cross-clamp was removed 10 minutes later. […] The intravenous line was then flushed with saline. […] Res. Commun. 80: 849-57, 1978). […] Image acquisition was performed as described below. […] A final blood sample was taken for well counting. […] Open Chest Sham. […] Closed Chest Sham. In seven animals, an ear intravenous line was established. No thoracotomy was performed. […] Ovalbumin. […] Indium Platelets. […] J. Cardiol. […] Non-specific Tc-Labeled Antibody. […] Imaging. […] The cobalt marker was then removed. […] These were followed by a 10 minute tomographic acquisition. […] Each image was scored as positive, equivocal or negative. […] Each vial was counted for 1 minute.
For the injured tissues and thrombi, multiple specimens were usually taken from the same animal. In those cases, the maximum ratio for any one specimen is reported, as well as the average of all specimens taken. The maximum for each animal was averaged across all animals and is reported as the Maximum Anx-V Ratio.

[3] = system: freshly isolated human platelets; test: competition assay: inhibition of binding of unmodified 125I radiolabeled annexin V to platelets
Protocol: The ability of galactose-modified annexin V to bind to activated platelets was assessed by determining its ability to inhibit the binding of unmodified, ^125I radiolabeled annexin V to freshly isolated human platelets, following the method of Thiagarajan and Tait J. Biol. Chem. 265: 17240-43, 1990.

| Molecule | %ID/g a [1] | %ID/g b [1] | ID/g cleared in the slower b phase [1] | a + b [1] | t1/2 a [1] | t1/2 b [1] | highest non-target localization [2] | Competition (% of control) ([3]; absolute value (left column), inhibition of 125I annexin V binding to human platelets) | Competition (% of control) ([3]; value normalized to 100% for unmodified annexin V (right column)) |
| --- | --- | --- | --- | --- | --- | --- | --- | --- | --- |
| Tc-99m-annexin V: annexin V radiolabeled with Tc-99m by a diamide dimercaptide N2S2 chelate (Example I) | 0.0389 %ID/g | 0.0300 %ID/g | 43% | 0.0689 | 9.6 min | 46 min | kidney | – | – |
| 1.1: galactose-modified annexin V, substitution ratio 1.1:1 (offering ratio 75:1) (conjugate, UniProt P08758 2-320, looked up, galactose-modified) Annexin A5: AQVLRGTVTDFPGFDERADAETLRKAMKGLGTDEESILTLLTSRSNAQRQEISAAFKTLFGRDLLDDLKSELTGKFEKLIVALMKPSRLYDAYELKHALKGAGTNEKVLTEIIASRTPEELRAIKQVYEEEYGSSLEDDVVGDTSGYYQRMLVVLLQANRDPDAGIDEAQVEQDAQALFQAGELKWGTDEEKFITIFGTRSVSHLRKVFDKYMTISGFQIEETIDRETSGNLEQLLLAVVKSIRSIPAYLAETLYYAMKGAGTDDHTLIRVMVSRSEIDLFNIRKEFRKNFATSLYSMIKGDTSGDYKKALLLLCGEDD | – | – | – | – | – | – | – | 21.4 % of control | 28.7 % of control |
